Source: patent publication US20040106173A1, “Bot1: target for antifungal agents” (The University of Miami, priority 2001, published 2004)

Tests used:
[1] = tested on: microtubule cytoskeleton of fission yeast cells expressing Myc-Bot1; assay: Microtubule depolymerization and Bot1p localization by immunofluorescence in cells expressing Myc-Bot1; format: cell-based, Schizosaccharomyces pombe; conditions: cells expressing Myc-Bot1 exposed for 45 min
Protocol: Cells in liquid cultures were grown exponentially for at least eight generations, at densities below 10^7 cells/ml, before the start of the experiment. Immunofluorescent staining was performed as described (46). Cells were fixed in methanol and stained with the following primary antibodies: a rabbit polyclonal antibody anti-Tea1p (40, a kind gift of Dr. P. Nurse, ICRF London), a rabbit polyclonal antibody anti-Orb6p, a monoclonal anti-hemagglutinin (HA) antibody (Covance), and a chicken polyclonal anti-Myc antibody (Molecular Probes). For actin and microtubule staining, a monoclonal anti-actin antibody (Amersham Pharmacia Biotech) and a monoclonal anti-tubulin antibody (TAT1; a kind gift of Dr. K. Gull), respectively, were used A CY3-conjugated anti-mouse, a CY3-conjugated anti-rabbit, or an FITC-conjugated anti-mouse were used as secondary antibodies (Sigma). Cells were immobilized on coverslips using PBS-containing antifade (Molecular Probes) as mounting medium and photographed using a Zeiss Axiophot microscope or a Leica DMRA microscope, equipped with Metamorph 1.7.4 software (Universal Images).
Because our previous results indicated a role for Tea1p in the control of Bot1p function, the effect of microtubule depolymerization on Bot1p localization was assessed. […]

[2] = target: GAL4 binding domain fused to SNF1p (pSE1112, pAS1-SNF1) (UniProt P04386 1-147; P06782 1-633); assay: yeast two-hybrid (HIS3 and LACZ reporters)
Text: (§1) The tea1 gene was fused to the DNA binding domain of GAL4 in a plasmid (pAS1) carrying the trp1 marker. The orb6 gene was fused to the DNA binding domain of GAL4 (pAS1-orb6) and to the GAL4 activator domain (pACT2-orb6). The cDNA library was cloned to the transcription activator domain of GAL4 in a plasmid (pACT) carrying the leu2 marker. Plasmids pAS1, pACT2, pSE1111 (pACT-SNF4), pSE1112 (pAS1-SNF1), pAS1-p53, pAS1-lamin and the S. pombe library prepared in phage λ vectors and plasmids pAS1-SNF1 and pAS1-lamin, both harbored in Y187 strain, were kindly provided by Dr. S. Elledge. The test for cell growth on medium lacking histidine, the beta-galactosidase activation assay and the mating test to detect interaction specificity were performed as described (14). After screening 2×10⁶ transformants, we found five proteins that interact with Orb6p and four that interact with Tea1p in this system, and that were identified multiple times in the screen. Clones containing bot1+ were isolated 22 times in the Orb6p screen and eight times in the Tea1p screen. All clones contained the full-length bot1 sequence, although they usually lacked the initial ATG codon. For beta-galactosidase activation, three independent transformants were assayed for each condition.
(§2) To identify novel components of the Orb6p pathway, a two-hybrid screen was performed to identify cDNAs encoding proteins that interact with Orb6p. One of these, isolated 22 times in this screen, was a novel protein that we named Bot1p. […] The specificity of the positive interaction between Orb6p and Bot1p in the two-hybrid system was controlled by cotransformation of pAS1-orb6 and pACT-bot1 independently with a number of control plasmids. Co-expression of SNF1p or SNF4p was used as positive controls. Orb6p was unable to support the activation of the LACZ-GAL4 and HIS3-GAL4 promoters when co-expressed with GAL4 activation domain fused to SNF4p, or with the GAL4 activation domain (GAD) alone. Bot1p was unable to support the activation of the LACZ-GAL4 and HIS3-GAL4 promoters when co-expressed with the GAL4 binding domain fused to p53, Cdc23p, GAL4 DNA binding domain (GBD) alone, or fused to SNF1p or Cdt1p.

[3] = target: T1, GAL4 binding domain fused to Cdc23p (pAS1-cdc23) (fission yeast, UniProt P04386 1-147; O42709 1-593); assay: yeast two-hybrid (HIS3 and LACZ reporters)
T1 construct: Two-hybrid control bait
Text: as §1, §2

[4] = target: T2, GAL4 binding domain fused to Cdt1p (pAS1-cdt1) (fission yeast, UniProt P04386 1-147; P40382 1-422, limits assumed); assay: two-hybrid library screens with other baits; dot blotting of the isolated pACT plasmids
T2 construct: Two-hybrid control bait

[5] = target: T3, GST-tagged Tea1p (pESP-GSTtea1+) (Schizosaccharomyces pombe, UniProt P87061 1-1147); assay: glutathione beads carrying GST-Tea1p incubated with a fission yeast extract containing HA-Cdc23p
T3 construct: also called GST-Tea1p
T3 sequence (looked up): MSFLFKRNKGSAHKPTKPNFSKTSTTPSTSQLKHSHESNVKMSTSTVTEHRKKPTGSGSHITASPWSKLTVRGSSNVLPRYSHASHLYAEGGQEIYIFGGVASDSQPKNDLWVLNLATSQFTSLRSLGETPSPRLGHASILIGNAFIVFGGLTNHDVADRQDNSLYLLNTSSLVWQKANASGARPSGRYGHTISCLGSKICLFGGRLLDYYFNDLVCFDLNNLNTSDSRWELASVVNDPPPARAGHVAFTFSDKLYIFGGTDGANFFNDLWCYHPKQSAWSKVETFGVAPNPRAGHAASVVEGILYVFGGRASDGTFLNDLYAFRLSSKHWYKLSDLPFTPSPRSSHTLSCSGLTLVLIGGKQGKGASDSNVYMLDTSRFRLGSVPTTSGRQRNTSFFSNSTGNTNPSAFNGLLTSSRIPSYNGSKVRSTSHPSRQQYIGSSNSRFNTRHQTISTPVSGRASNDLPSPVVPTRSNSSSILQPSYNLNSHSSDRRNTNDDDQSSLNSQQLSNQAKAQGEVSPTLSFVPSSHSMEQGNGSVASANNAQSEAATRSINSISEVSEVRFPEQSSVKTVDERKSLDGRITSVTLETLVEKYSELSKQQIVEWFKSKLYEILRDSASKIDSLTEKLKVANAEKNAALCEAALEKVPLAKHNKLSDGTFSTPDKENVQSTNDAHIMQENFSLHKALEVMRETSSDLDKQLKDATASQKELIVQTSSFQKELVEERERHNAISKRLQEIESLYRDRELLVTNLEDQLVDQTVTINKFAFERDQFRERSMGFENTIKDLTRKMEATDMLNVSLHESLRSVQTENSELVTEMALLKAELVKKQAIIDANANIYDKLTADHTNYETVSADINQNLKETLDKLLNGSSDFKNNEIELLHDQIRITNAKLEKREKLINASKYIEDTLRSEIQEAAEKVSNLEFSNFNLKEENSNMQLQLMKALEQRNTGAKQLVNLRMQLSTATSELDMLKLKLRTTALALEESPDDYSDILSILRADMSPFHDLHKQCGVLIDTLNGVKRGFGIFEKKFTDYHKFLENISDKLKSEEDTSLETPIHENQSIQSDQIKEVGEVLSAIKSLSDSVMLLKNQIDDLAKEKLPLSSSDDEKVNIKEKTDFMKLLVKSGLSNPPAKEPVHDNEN
Protocol: Cell extracts were prepared as described. GST-Tea1p and GST were purified using glutathione beads (Molecular Probes). Beads were spun, and further incubated for 4 hr with an extract containing HA-Bot1p or a control extract containing HA-Cdc23p.
Glutathione beads were washed three times in HB buffer and then eluted. The eluate was run on a 10% polyacrylamide gel, blotted on nitrocellulose, and probed with a primary anti-HA antibody (Covance) or, separately, with a primary anti-GST antibody (Molecular Probes) and with a horseradish peroxidase-conjugated secondary antibody (ECL, Amersham).
To confirm this interaction between Tea1p and Bot1p in fission yeast extracts, GST-Tea1p and HA-Bot1p were co-expressed in fission yeast cells, and GST-Tea1p was purified using glutathione-coupled resin. The beads were further incubated with an extract containing HA-Bot1p or HA-Cdc23p as a control.

With `COC(=O)Nc1nc2ccccc2[nH]1` [MBC, methyl-benzidazole-carbamate] the “effect on microtubule cytoskeleton” value ([1]; DMSO control) was “virtually complete microtubule depolymerization” and the Bot1p localization ([1]; DMSO control showed normal Bot1p localization at the cell tips) was “more spread out and less restricted to the cell tips”.

B1: Bot1p fused to the GAL4 activation domain (pACT-bot1) (other, not shown: large carriers)
chain: MRNSVEFSQLGLKTAFNLSQNKTYTSAVKKQFFSTGAFLSNGGNIDLNKHTQKNIDSKYVACNSRSVTPPNDVASSVSKNTLRHKQRLMMAQWLMSPEVQKAKSSSSGNVGLGPNTNQPFPLNPFFKPPRPISHSLRMKITDEYLQGASIEVLARKFNTSPQRIEALIKLRRINDEFEEKKKPILHSYNEVMEKMLNACTKPEMMQFNDGNDIPLRSNPVSLWKSLPEGETFTPQEAAKILKWPSIEELNMRQNATHFHKTSDEHKDLNEDEELISSSPSEVGKRVFRLIDLSTGNVYRRDTGGDIYVKRKKSTT
notes: also called bot1+ clones
B1: no binding [2]; no binding [3]; no binding [4].

B2: HA-tagged Cdc23p (pRep41-HA3cdc23) (other, fission yeast, UniProt O42709 1-593, looked up, not shown: small tags and cut ends)
chain: MHDPFIAEENDLDLEEKRLQRQLNEIQEKKRLRSAQKEASSENAEVIQVPRSPPQQVRVLTVSSPSKLKSPKRLILGIDKGKTGKDVSLGKGPRGPLPKPFHERLAEARNQERKRSDKLKTMKKNRKQSFQRKRNILEDGKSEEEKFPMKCDEIDPYSRQAIVIRYISDEVAKENIGGNQVYLIHQLLKLVRAPKFEAPEVDNYVVMGIVASNSGTRETVNGNKYCMLTLTDLKWQLECFLFGKAFERYWKIQSGTVIALLNPEVLKPKNPDIGRFSLKLDSEYDVLLEIGRSKHLGYCSSRRKSGELCKHWLDKRAGDVCEYHVDLAVQRSMSTRTEFASSMATMHEPRARREKRFRGQGFQGYFAGEKYSAIPNAVAGLYDAEDAVQTERERKERYKKQRAQAEREREILVRLSKRCCASSSSSSNSNNLSTGMSMRTLGHQYLNLQGSGVKNLHDKGNPTALSKDSEIDSSTKKPSVLASFNASIMNPKSSLPSFSNSAILGTNDAASGTPVPQDTTSTKVSPAVVFTSSPRIFSPQSLRKIGFDPTHSADASTTHSTATGLSRSGSLKNIKFRYEFTESDDEDDLEIVP
notes: also called HA-Cdc23p; HA-Cdc23
B2: no binding [5].
